Experimental data taken from article PMC4772974 (EMBO Reports, 2016).
One block for each molecule: values may come before it.

What was measured:
BBS4 = BBS4 (UniProt Q96RK4); assay: GFP-Trap co-IP, immunoblot; conditions: reference: EGFP-PCM1-WT*; sites S372
Cep290 = Cep290 (UniProt O15078); assay: GFP-Trap co-IP, immunoblot; conditions: reference: EGFP-PCM1-WT*; sites S372
PCM1 = PCM1 (UniProt Q15154); assay: RFP-Trap co-IP, mCherry-PCM1 with EGFP-PCM1; conditions: reference: mCherry-PCM1-WT* with EGFP-PCM1-WT*; sites S372
His‐PCM1 (a.a. 1–1,128) = molecular target: T1, His‐PCM1 (a.a. 1–1,128) (human, UniProt Q15154 1-1128); assay: pull-down; MBP-Plk4 on Dynabeads Protein G coupled with anti-MBP antibody; 8 μg His-PCM1(1128) in 600 μl binding buffer (50 mM Tris-HCl pH 7.5, 200 mM NaCl, 2 mM MgCl2, 0.5 mg/ml BSA, 0.05% NP-40), 4°C, 2 h; Coomassie and anti-His blot; conditions: both partners purified
T1 sequence (looked up): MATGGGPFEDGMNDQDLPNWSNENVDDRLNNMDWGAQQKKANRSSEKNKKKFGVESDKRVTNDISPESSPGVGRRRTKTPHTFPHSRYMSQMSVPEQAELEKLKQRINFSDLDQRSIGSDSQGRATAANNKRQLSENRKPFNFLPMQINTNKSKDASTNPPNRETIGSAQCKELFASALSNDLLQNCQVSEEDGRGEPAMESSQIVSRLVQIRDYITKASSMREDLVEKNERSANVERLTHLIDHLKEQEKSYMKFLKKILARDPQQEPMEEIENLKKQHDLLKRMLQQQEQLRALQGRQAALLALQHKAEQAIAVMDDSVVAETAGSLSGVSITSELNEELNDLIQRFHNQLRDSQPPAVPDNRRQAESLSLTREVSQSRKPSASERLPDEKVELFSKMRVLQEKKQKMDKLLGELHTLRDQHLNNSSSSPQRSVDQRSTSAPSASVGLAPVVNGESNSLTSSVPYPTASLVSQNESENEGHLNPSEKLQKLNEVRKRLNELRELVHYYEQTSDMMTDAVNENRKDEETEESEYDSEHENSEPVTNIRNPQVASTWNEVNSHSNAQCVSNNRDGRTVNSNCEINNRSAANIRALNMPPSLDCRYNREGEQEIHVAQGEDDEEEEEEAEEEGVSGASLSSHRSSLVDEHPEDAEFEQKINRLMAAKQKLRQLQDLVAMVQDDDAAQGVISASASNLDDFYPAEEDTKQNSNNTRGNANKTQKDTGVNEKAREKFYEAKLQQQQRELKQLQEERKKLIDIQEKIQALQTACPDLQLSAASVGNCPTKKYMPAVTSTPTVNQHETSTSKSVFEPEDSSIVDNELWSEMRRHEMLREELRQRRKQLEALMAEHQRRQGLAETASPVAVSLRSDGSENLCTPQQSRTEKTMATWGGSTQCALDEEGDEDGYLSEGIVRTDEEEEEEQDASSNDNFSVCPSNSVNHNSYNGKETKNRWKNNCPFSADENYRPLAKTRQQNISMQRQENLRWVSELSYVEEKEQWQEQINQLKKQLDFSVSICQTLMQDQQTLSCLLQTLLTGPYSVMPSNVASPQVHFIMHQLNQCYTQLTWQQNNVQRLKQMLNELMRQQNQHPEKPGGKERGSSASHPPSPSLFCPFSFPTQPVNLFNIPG

- binding against the reference (BBS4): weaker
- binding against the reference (Cep290): weaker
Molecule: PCM1 (from UniProt Q15154) EGFP-PCM1-S372A*

- binding against the reference (PCM1): weaker
Molecule: PCM1 (from UniProt Q15154) mCherry-PCM1-S372A* with EGFP-PCM1-WT*

- binding result (His‐PCM1 (a.a. 1–1,128)): binds
B1: MBP‐Plk4‐WT (enzyme, UniProt O00444 1-970, looked up)
chain: MATCIGEKIEDFKVGNLLGKGSFAGVYRAESIHTGLEVAIKMIDKKAMYKAGMVQRVQNEVKIHCQLKHPSILELYNYFEDSNYVYLVLEMCHNGEMNRYLKNRVKPFSENEARHFMHQIITGMLYLHSHGILHRDLTLSNLLLTRNMNIKIADFGLATQLKMPHEKHYTLCGTPNYISPEIATRSAHGLESDVWSLGCMFYTLLIGRPPFDTDTVKNTLNKVVLADYEMPSFLSIEAKDLIHQLLRRNPADRLSLSSVLDHPFMSRNSSTKSKDLGTVEDSIDSGHATISTAITASSSTSISGSLFDKRRLLIGQPLPNKMTVFPKNKSSTDFSSSGDGNSFYTQWGNQETSNSGRGRVIQDAEERPHSRYLRRAYSSDRSGTSNSQSQAKTYTMERCHSAEMLSVSKRSGGGENEERYSPTDNNANIFNFFKEKTSSSSGSFERPDNNQALSNHLCPGKTPFPFADPTPQTETVQQWFGNLQINAHLRKTTEYDSISPNRDFQGHPDLQKDTSKNAWTDTKVKKNSDASDNAHSVKQQNTMKYMTALHSKPEIIQQECVFGSDPLSEQSKTRGMEPPWGYQNRTLRSITSPLVAHRLKPIRQKTKKAVVSILDSEEVCVELVKEYASQEYVKEVLQISSDGNTITIYYPNGGRGFPLADRPPSPTDNISRYSFDNLPEKYWRKYQYASRFVQLVRSKSPKITYFTRYAKCILMENSPGADFEVWFYDGVKIHKTEDFIQVIEKTGKSYTLKSESEVNSLKEEIKMYMDHANEGHRICLALESIISEEERKTRSAPFFPIIIGRKPGSTSSPKALSPPPSVDSNYPTRERASFNRMVMHSAASPTQAPILNPSMVTNEGLGLTTTASGTDISSNSLKDCLPKSAQLLKSVFVKNVGWATQLTSGAVWVQFNDGSQLVVQAGVSSISYTSPNGQTTRYGENEKLPDYIKQKLQCLSSILLMFSNPTPNFH
